Laboratory results as given in paper PMC11960969, “Mdga2 deficiency leads to an aberrant activation of BDNF/TrkB signaling that underlies autism-relevant synaptic and behavioral changes in mice” (PLOS Biology, 2025).

B1: sp¦Q8C5W0¦CLMN_MOUSE (protein, UniProt Q8C5W0 1-1052, looked up)
Calmin: MAAQEWDWFQREELIGQISDIRVQNLQVERENVQKRTFTRWINLHLEKCDPPLEVTDLFVDIQDGKILMALLEVLSGRNLLHEYKSSSHRIFRLNNIAKALKFLEDSNVKLVSIDAAEIADGNPSLVLGLIWNIILFFQIKELTGNLSRSSPSSSLSPGSGGTDSDSSYPPTPTTERSVAVAVKDQRKAIKTLLSWVQRKTRKYGVAVQDFAGSWRSGLAFLAVIKAIDPSLVDMKQALEDSTRDNLEKAFSIAHDSLHIPRLLEPEDIMVDMPDEQSIVTYVAQFLERFPELEPEDFVNPDKEAPIESTFVRIKESPSEQGSRVLLLSENGERAYTVNQETSYPPPDKVFVCDQLESPTGFCLDSAPSHKLSDSSTEFMHEIIDQVLQGSTGKTGSIAEPTPESSILSTRKDGRRSNSLPVKKTVHFEADLHKDASCSKDPFYSSDFRFEGSPKATKELSKQDGHVSLAEVSKEKKKSEQEARLVLEAASDKVPESTVDGLDAVPQDAQPSQDSSFCNGTVESPSSQGEKGPPPSSPGDHTLLANSTELKVQLLTVEPMDKEDYFECIPLKASKFNRDLVDFASTSQAFGEDPSSHEKTRGEEEGSENHAEKPGKRKSKSPRAETEAAESRLEPKKLEPPPKDPEQEDQGHALPPETPADKKPKVYEKAKRKSTRHHSEEEGEAESGFSAVCEEEIPSAPPSTSVSLETLRSHSEEGLDFKPSPPLSKISVIPHDLFYYPHYEVPLAAVLEAYAEGGEDLKSEDTDLEHPEDSYLQDSREEEADEDEEEAQSSQSSCSFSLPVDNSYPSVSEHVSHVDGSSEGPTSALGPGSPPSHEDHQPKETKENGPVESQQSQEPPNPELPTKPLEEKLTEASTSSKKKEKRKHMDHVESSLFIAPGTVRSSDDLEENSSEHKVPSRNSHSDSSIYIRRHTNRSLELDHFSYVQLRNAADLDDRRNRVLNRYNSQKLTELILQFYGIRADMKREYKHARLSMTGTNSSGEAVPLGNQSPPNDSLTQFVQQPDVIYFILFLWLLVYCLLLFPQLDVSRL
B2: sp¦P48381¦RFX3_MOUSE (protein, UniProt P48381 1-749, looked up)
Transcription factor RFX3: MQTSETGSDTGSTVTLQTSVASQAAVPTQVVQQVPVQQQVQQVQTVQQVQHVYPAQVQYVEGSDTVYTNGAIRTTTYPYTETQMYSQNTGGNYFDTQGSSAQVTTVVSSHSMVGTGGIQMGVTGGQLISSSGGTYLIGNSMENSGHSVTHTTRASPATIEMAIETLQKSDGLSTHRSSLLNSHLQWLLDNYETAEGVSLPRSTLYNHYLRHCQEHKLDPVNAASFGKLIRSIFMGLRTRRLGTRGNSKYHYYGIRVKPDSPLNRLQEDMQYMAMRQQPMQQKQRYKPMQKVDGVADGFTGSGQQTGTSVEQTVIAQSQHHQQFLDASRALPEFGEVEISSLPDGTTFEDIKSLQSLYREHCEAILDVVVNLQFSLIEKLWQTFWRYSPSTPADGTTITESSNLSEIESRLPKAKLITLCKHESILKWMCNCDHGMYQALVEILIPDVLRPIPSALTQAIRNFAKSLEGWLSNAMNNIPQRMIQTKVAAVSAFAQTLRRYTSLNHLAQAARAVLQNTSQINQMLSDLNRVDFANVQEQASWVCQCDDNMVQRLETDFKMTLQQQSTLEQWAAWLDNVMMQALKPYEGRPSFPKAARQFLLKWSFYSSMVIRDLTLRSAASFGSFHLIRLLYDEYMFYLVEHRVAQVTGETPIAVMGEFGDLNAVSPGNLDKDEGSEVESETDEDLDDSSEPRAKREKTELSQAFPVGCMQPVLESAVQPSLLNPLHSEHIVTSTQTIRQCSATGNTYTAV
B3: sp¦Q6A0D4¦RFTN1_MOUSE (protein, UniProt Q6A0D4 2-554, looked up)
Raftlin: GCSLNKLEKREEKRPGNIYSTLKRPQVETKVDVTYEYCFLEFTTLTAAELPRSSATRLASLRDLPDQLLELYQQGFSLAALHPFVQPTRRQEKILLEHIFRAILVKKTNRSQKAELHDEGYTLELDYCSSLEHLADQKLIPEFIKKVQEAASQGLKFVSVVPQYQPSVSSAGSRRLKPVANSVEDARDVKCTLGDRSSLENDTPKAAETDAATAGVNRRPETKPGSTGDVPSAQQPGIPSPSAENEAGEFPLRGLQPALDRSEGDPSNGPEELPSRKMEIFAFFNRPKSQQKCRQYYPVTIPLQVSKNGQTVSSLDASWLEHMSDHFRKGGVLVNAVFQLGMANDSFYGLTDGVFIFEAVSTEDNRTTQGYDAIVVEQWTVLEGTEVQTDYMPLLNSLAAYGWQLTCVLPTPILKTTREGNVSTKQIVFLQRPCLPQKTKKRESKFQWRFSRNEIHGRQTRKSKGKLSASNKQQAEENEKNLEDQFSKAGDVGNCVLGAPQWGRASEVREQRQGSAAVQNGPAGHNRDSVALRHSNPRAEAELAAGPTPTEAN
B4: sp¦Q8BZ60¦STON2_MOUSE (protein, UniProt Q8BZ60 1-895, looked up)
Stonin-2: MTTLDHVIATHQSEWVSFSEEPLFPTPLEGGTEEHFPGLSSSSERSESSSGENHVVDEGSQDLSHSEQDDSSEKMGLISEAASPPGSPVQPTPDLASAISNWVQFEDDTPWSSTSPPHKETALTLTMPCWTCPSFDSLRRCPLTSESSWTTHSEDTSSPSVAPSYTDLQLINTEEQASGRASGTDSTDNSSSLQEDEEVEMEAISWWAGSPAMNGHPAAPPVTTARFPSWVTFEDNEVGCPSPPVPSPKKPNTPSAATAAPDVPFNSTGSFKRDRPKSTLMNLPKVQKLDISSLNRPPSVIEAPPWRATNPFLNETLQDVQPSPINPFSAFFEEQERRSQNSSVSSTTGKSQRDSLIVVYQDAISFDDSGKSQPHPDAIEKLKQLQIDDPDPVGNTALPDDDPTASVELDAPSPASALSQPRDGWPMMLRIPEKKNIMSSRHWGPIYIKLTASGYLQLYYEQGLEKPFREFKLEICHEVSEPRLQNYDENGRIHSLRIDRVTYKEKKKYQPKPAVAHAAEREQVIKLGTTNYDDFRSFIHAVQDRLMDLPVLSMDLSTVGLNYLEEEITVDVRDEFSGTVGKGDNQILQHHVLTRIHILSFLSGLAECRLGLNDILIKGNEIVSRQDIMPTTTTKWIKLHECRFHGCVDEDVFNSSRVILFNPLDACRFELMRFRTVFAEKTLPFTLRTAASINGAEVEVQSWLRMSPGFSSNRDPLTQVPCENVMVRYPVPSEWVKNFRRDSVLGEKSLKAKVNRGASFGSAGASGSEPVMRVTLGTAKYEHAFNSIVWRINRLPDKNSASGHPHCFFCHLELGSDREVPSRFANYVNVEFSMPTTSASKAAVRSVSVEDKPDVRKWVNYSAHYSYKVEIEQKKSLKPDFEGEDLENPKECGVQ
B5: sp¦P43135¦COT2_MOUSE (protein, UniProt P43135 1-414, looked up)
COUP transcription factor 2: MAMVVSTWRDPQDEVPGSQGSQASQAPPVPGPPPGAPHTPQTPGQGGPASTPAQTAAGGQGGPGGPGSDKQQQQQHIECVVCGDKSSGKHYGQFTCEGCKSFFKRSVRRNLSYTCRANRNCPIDQHHRNQCQYCRLKKCLKVGMRREAVQRGRMPPTQPTHGQFALTNGDPLNCHSYLSGYISLLLRAEPYPTSRFGSQCMQPNNIMGIENICELAARMLFSAVEWARNIPFFPDLQITDQVALLRLTWSELFVLNAAQCSMPLHVAPLLAAAGLHASPMSADRVVAFMDHIRIFQEQVEKLKALHVDSAEYSCLKAIVLFTSDACGLSDVAHVESLQEKSQCALEEYVRSQYPNQPTRFGKLLLRLPSLRTVSSSVIEQLFFVRLVGKTPIETLIRDMLLSGSSFNWPYMAIQ

What follows are molecules tested on hippocampal proteins (assay: DIA quantification proteomics, hippocampus of Mdga2+/- vs WT mice). Conditions: Mdga2+/- vs WT mouse hippocampus (HET-HIP-VS-WT-HIP); S3 Table, downregulated DEPs; SE, pvalue and adj_pvalue in own columns c3-c5.
Design: species or system mouse
Experimental: The hippocampus of 1.5–2-month-old Mdga2^ +/− male mice and their WT littermate controls was collected and sent to the BGI company for DIA quantification proteomics and data analysis. Briefly, samples were lysed and sonicated. After centrifugation, the supernatant was taken for quantification. Equal amounts of proteins (100 μg) per sample were subjected to trypsin enzymatic hydrolysis. After dryness, 10 μg enzymatic peptides per sample were separated by high-pH fractionation into a total of 10 fractions using high-performance liquid chromatography (HPLC) and freeze-dried. Data-dependent acquisition (DDA) fractions and DIA samples were analyzed by nano-LC–MS/MS. DDA data was identified by Andromeda search engine within MaxQuant. Identified results were used by Spectronaut^TM for spectral library construction. For DIA data, Spectronaut^TM used the constructed spectral library information to complete deconvolution and extraction, and used the mProphet algorithm to complete analytical quality control for obtaining reliable quantitative results. The mass spectrometry proteomics data have been deposited to the ProteomeXchange Consortium via the PRIDE [62] partner repository with the dataset identifier PXD050810. DEPs between comparison groups were identified based on the quantitative results, using the fold change >1.1 and p-value <0.05 as the criteria. After retrieval from the UniProtKB database, identified DEPs were processed for GO analysis by using DAVID (https://david.ncifcrf.gov/home.jsp) and Metascape database (https://metascape.org/gp/index.html).

Row | Molecule | log2FC
1 | B1 | -1.505
2 | B2 | -1.5061
3 | B3 | -1.516
4 | B4 | -1.549
5 | B5 | -1.636

Same assay, conditions: regulation class of the protein, HET-HIP-VS-WT-HIP; S3 Table, downregulated DEPs

Row | Molecule | Class
6 | B1 | Down
7 | B2 | Down
8 | B3 | Down
9 | B4 | Down
10 | B5 | Down
